Target: HTLV receptor (Glut1, the ubiquitous vertebrate glucose transporter) on human cells (human (endogenous in 293T)) (UniProt P11166)
Chain of UniProt P11166 (P11166 whole entry): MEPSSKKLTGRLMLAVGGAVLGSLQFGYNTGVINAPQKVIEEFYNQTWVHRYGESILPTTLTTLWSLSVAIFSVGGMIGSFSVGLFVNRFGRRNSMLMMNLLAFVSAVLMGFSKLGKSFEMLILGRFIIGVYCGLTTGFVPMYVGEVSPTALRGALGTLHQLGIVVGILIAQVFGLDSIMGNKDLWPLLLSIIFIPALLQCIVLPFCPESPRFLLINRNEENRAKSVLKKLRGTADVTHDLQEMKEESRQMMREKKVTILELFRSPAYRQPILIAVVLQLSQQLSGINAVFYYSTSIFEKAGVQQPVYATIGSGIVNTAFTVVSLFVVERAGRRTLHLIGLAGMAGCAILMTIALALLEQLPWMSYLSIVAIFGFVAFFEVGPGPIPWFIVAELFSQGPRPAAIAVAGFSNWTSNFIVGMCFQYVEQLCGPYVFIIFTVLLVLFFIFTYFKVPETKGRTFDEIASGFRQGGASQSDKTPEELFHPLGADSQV

Substance: H1(Y114A)SU, H1_(215)SU subdomain with Tyr114 mutated to Ala (from UniProt P23064 21-215) (Fc fusion)
- HTLV Env-mediated cell fusion with target cells that express the mutant, percent of control fusion: 56 % of control
- MLV(HTLV) pseudotype infection of target cells that express the mutant, percent of control infection: 46 % of control

From publication PMC539286
